In data set [1] the target is T1, DNA ligase IV tandem BRCT domains (residues 654-911) (UniProt P49917 654-911).
T1 sequence (looked up): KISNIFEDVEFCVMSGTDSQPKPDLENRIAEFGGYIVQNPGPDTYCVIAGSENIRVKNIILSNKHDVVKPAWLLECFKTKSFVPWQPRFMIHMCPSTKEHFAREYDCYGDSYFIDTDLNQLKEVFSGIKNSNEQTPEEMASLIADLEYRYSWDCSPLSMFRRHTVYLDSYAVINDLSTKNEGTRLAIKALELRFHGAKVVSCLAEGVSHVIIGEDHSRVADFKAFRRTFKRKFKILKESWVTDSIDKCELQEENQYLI
Description: SEC. On the technique in general: In gel filtration, larger molecules generally elute earlier.

The data set “SEC” deals with the molecule itself. Description: SEC.
The data set “SEC-MALS” deals with the molecule itself. Description: SEC-MALS.

B1: XRCC4 residues 1-238, non-phosphorylated (domain or fragment, UniProt Q13426 1-238, looked up)
chain: MERKISRIHLVSEPSITHFLQVSWEKTLESGFVITLTDGHSAWTGTVSESEISQEADDMAMEKGKYVGELRKALLSGAGPADVYTFNFSKESCYFFFEKNLKDVSFRLGSFNLEKVENPAEVIRELICYCLDTIAENQAKNEHLQKENERLLRDWNDVQGRFEKCVSAKEALETDLYKRFILVLNEKKTKIRSLHNKLLNAAQEREKDIKQEGETAICSEMTADRDPVYDESTDEESE
Turning to B1, the binding result (in data set [1]; in the data set “SEC”) was “binds” throughout.

B2: CK2-phosphorylated XRCC4 residues 1-238 (domain or fragment, UniProt Q13426 1-238, looked up)
chain: MERKISRIHLVSEPSITHFLQVSWEKTLESGFVITLTDGHSAWTGTVSESEISQEADDMAMEKGKYVGELRKALLSGAGPADVYTFNFSKESCYFFFEKNLKDVSFRLGSFNLEKVENPAEVIRELICYCLDTIAENQAKNEHLQKENERLLRDWNDVQGRFEKCVSAKEALETDLYKRFILVLNEKKTKIRSLHNKLLNAAQEREKDIKQEGETAICSEMTADRDPVYDESTDEESE
modifications: phosphoserine at 232, phosphothreonine at 233 (CK2alpha in vitro)
A word on the stoichiometry N: it is a count of units in the complex or per binding partner. Regarding B2, the “stoichiometry N” value in “SEC-MALS” is 2. The binding result in data set [1] is given as “binds”.
